For assay [1], the target named is T1, human PD-L1 on Hep3B cells co-expressing human PD-L1 and OS8 (human, UniProt Q9NZQ7 19-290). The assay is described as follows: cell-based or functional assay.
For assay [2], the target named is T2, Human PD-L1 (Acrobiosystems, PD1-H5229) (human, UniProt Q9NZQ7 19-238).
T2 construct: bought reagent; also called human PD-L1 protein
In words: ELISA, coated human PD-L1. For orientation: An ELISA detects its analyte on a solid surface through an enzyme-linked reagent.
Method: After the liquid was discarded, the PBST buffer (pH 7.4, containing 0.05% tween-20) was used to wash the plate for 3 times. 250 μL of 2% BSA blocking buffer was added, and was incubated at the condition of 37° C. for 1 hr. The blocking buffer was discarded, and the PBST buffer (pH 7.4, containing 0.05% tween-20) was used to wash the plate for 3 times. The antigen binding proteins to be tested, serially diluted 5-fold starting from the concentration of 100 nM, 8 concentration gradients in total, were added at 100 μL per well, and were then incubated at 37° C. for 1 hr. […] After washing with PBST buffer (pH 7.4, containing 0.05% tween-20) for three times, the goat anti-human HRP secondary antibody (Invitrogen, A18805) that was diluted 4000-fold was added, and was incubated away from light at the condition of 37° C. for 1 hr. After washing by PBST buffer (pH 7.4, containing 0.05% tween-20) for three times, 100 μL/well of TMB (Biopanda, TMB-S-003) was added, and was placed away from light at room temperature for about 5 mins; stop solution (BBI life sciences, E661006-0200) was added to each well at 50 μL/well to stop the reaction. The Microplate Reader Enspire (PerkinElemer) was used to detect the absorption values at 450 nm (OD450). The software GraphPad Prism 8 was applied to perform data processing and plotting analysis, the parameters such as binding curves and EC50 values were obtained by four-parameter non-linear fitting.

In assay [3] the target is T3, human PD-L1 on CHO-K1 cells (CHO-K1/hPD-L1, Nanjing Genscript, M00543) (human, UniProt Q9NZQ7 19-290).
T3 construct: whole, on cells; also called CHO-K1 cells overexpressing human PD-L1; human PD-L1 on the cell surface
T3 sequence (Q9NZQ7 19-290, one chain of several): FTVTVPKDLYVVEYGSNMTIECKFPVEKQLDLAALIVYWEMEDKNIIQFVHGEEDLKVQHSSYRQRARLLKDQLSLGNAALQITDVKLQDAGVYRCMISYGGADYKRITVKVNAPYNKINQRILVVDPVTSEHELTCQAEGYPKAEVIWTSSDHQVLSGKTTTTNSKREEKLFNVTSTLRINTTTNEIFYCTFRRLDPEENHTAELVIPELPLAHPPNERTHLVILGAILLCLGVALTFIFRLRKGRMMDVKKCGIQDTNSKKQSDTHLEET
In words: flow cytometry competition: biotin-hPD-1 binding to CHO-K1/hPD-L1 cells.
Method: (§1) In brief, the CHO-K1/hPD-L1 cells were digested, and resuspended in F-12K complete medium. The cell density was adjusted to 1× 10⁶ cells/mL. […] Cells were placed at 4° C., and were incubated away from light for 1 hr. Then, the cells were centrifugated at 4° C. for 5 mins, and the supernatant was discarded. […] The cells were washed with 100 μL/well of pre-cooled PBS twice, centrifuged at 500 g, 4° C. for 5 mins, and the supernatant was discarded. […] 200 μL/well of pre-cooled PBS was used to wash cells twice, cells were centrifuged at 500 g, 4° C. for 5 mins, the supernatant was discarded. Finally, 200 μL/well of pre-cooled PBS was used to resuspend cells. The BD FACS MAYTOII was used to read the signal value of fluorescent luminescence. The software GraphPad Prism 8 was applied to perform data processing and plotting analysis, and the parameters such as binding curves and IC50 values were obtained by four-parameter non-linear fitting.

Assay [4] deals with T4, cynomolgus PD-L1 on CHO-K1 cells (CHO-K1/cynoPD-L1, Nanjing Genscript, M00573) (cynomolgus, UniProt G7PSE7 19-290).
T4 construct: also called CHO-K1 cells overexpressing cynomolgus PD-L1
T4 sequence (G7PSE7 entry or part of it limits assumed, one chain of several): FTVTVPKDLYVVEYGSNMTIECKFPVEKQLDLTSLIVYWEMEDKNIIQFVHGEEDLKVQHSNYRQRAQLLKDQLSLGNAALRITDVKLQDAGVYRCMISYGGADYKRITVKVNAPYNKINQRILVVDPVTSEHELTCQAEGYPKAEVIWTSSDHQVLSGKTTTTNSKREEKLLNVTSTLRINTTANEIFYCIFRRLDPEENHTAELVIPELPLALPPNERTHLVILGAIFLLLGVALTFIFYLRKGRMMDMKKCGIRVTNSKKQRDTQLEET
In words: flow cytometry on CHO-K1/cynoPD-L1 cells. A general note: Flow cytometry measures light scatter and fluorescence of single cells or particles in a stream.
From the text: To study the binding activity of the PD-L1 antigen binding proteins to human/cynomolgus PD-L1 in vitro, this example uses the CHOK1 cell line overexpressing human PD-L1 (CHO-K1/hPD-L1, Nanjing Genscript, M00543) or the CHOK1 cell line overexpressing cynomolgus PD-L1 (CHO-K1/cynoPD-L1, Nanjing Genscript, M00573) to perform binding experiments at cellular level. In brief, the PD-L1 cells were digested, and resuspended in F-12K complete medium, and the cell density was adjusted to 1× 10⁶ cells/mL. […] The cells were placed at 4° C., incubated away from light for 1 hr. Then, 100 μL/well of pre-cooled PBS was added to wash cells twice. The cells were centrifuged at 500 g, 4° C. for 5 mins, and the supernatant was discarded. […] 200 μL/well of pre-cooled PBS was added to wash cells twice, and the cells were centrifuged at 500 g, 4° C. for 5 mins, and the supernatant was discarded. Finally, the cells were resuspended with 200 μL/well of pre-cooled PBS. The signal values of fluorescent luminescence were read using BD FACS MAYTOII. The flow cytometer BD FAC MAYTOII was used to read the signal values of fluorescent luminescence, and the software FlowJo v10 (FlowJo, LLC) was used to process and analyze data. The software GraphPad Prism 8 was applied to perform data processing and plotting analysis, and the parameters such as binding curves and EC50 values were obtained by four-parameter non-linear fitting.

For assay [5], the target named is T5, human PD-L1 protein with histidine tag (NovoProtein, C315) (human, UniProt Q9NZQ7 19-239, limits assumed, biotinylated with EZ-Link Sulfo-NHS-LC-Biotin in the epitope competition experiments (Examples 8 and 20); not biotinylated in the affinity experiments).
T5 construct: bought reagent; also called biotinylated PD-L1 protein; not shown: histidine tag
T5 sequence (Q9NZQ7 19-239 limits assumed): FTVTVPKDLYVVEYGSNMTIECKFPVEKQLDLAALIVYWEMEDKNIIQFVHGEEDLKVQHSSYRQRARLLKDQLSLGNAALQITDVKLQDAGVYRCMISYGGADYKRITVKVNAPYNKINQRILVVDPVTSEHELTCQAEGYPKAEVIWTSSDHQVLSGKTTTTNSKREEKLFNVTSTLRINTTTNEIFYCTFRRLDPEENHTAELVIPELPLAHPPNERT
The assay is described as follows: BLI (Octet), antibody on AHC sensor, antigen 60 nM, 1:1 local fit.

Assay [6] has as its target T5, human PD-L1 protein with histidine tag …. In words: BLI (Octet), antibody on AHC sensor, antigen 50~1.56 nM, 1:1 global fit.
Method: When using Octet Data Analysis software (Fortebio, version 11.0) for data analysis, the double deduction mode (double reference) was selected to deduct the reference signal, the “1:1 Global fitting” method was selected for data fitting, the kinetic parameters of the binding of the antigen and the antigen binding proteins were calculated, and the kₒₙ (1/Ms) values, kdis (1/s) values and KD (M) values were obtained.
For assay [7], the target named is T3, human PD-L1 on CHO-K1 cells …. The assay is described as follows: flow cytometry on CHO-K1/hPD-L1 cells.
From the text: (§2) To study the binding activity of the PD-L1 antigen binding proteins to human/cynomolgus PD-L1 in vitro, this example uses the CHOK1 cell line overexpressing human PD-L1 (CHO-K1/hPD-L1, Nanjing Genscript, M00543) or the CHOK1 cell line overexpressing cynomolgus PD-L1 (CHO-K1/cynoPD-L1, Nanjing Genscript, M00573) to perform binding experiments at cellular level. In brief, the PD-L1 cells were digested, and resuspended in F-12K complete medium, and the cell density was adjusted to 1× 10⁶ cells/mL. […] The cells were placed at 4° C., incubated away from light for 1 hr. Then, 100 μL/well of pre-cooled PBS was added to wash cells twice. The cells were centrifuged at 500 g, 4° C. for 5 mins, and the supernatant was discarded. […] 200 μL/well of pre-cooled PBS was added to wash cells twice, and the cells were centrifuged at 500 g, 4° C. for 5 mins, and the supernatant was discarded. Finally, the cells were resuspended with 200 μL/well of pre-cooled PBS. The signal values of fluorescent luminescence were read using BD FACS MAYTOII. The flow cytometer BD FAC MAYTOII was used to read the signal values of fluorescent luminescence, and the software FlowJo v10 (FlowJo, LLC) was used to process and analyze data. […]
For assay [8] the target is unchanged. The assay is described as follows: flow cytometry competition: biotin-hPD-1 binding to CHO-K1/hPD-L1 cells. This is another data set of the same source.
Method: as §1
For assay [9] the target is unchanged. In words: flow cytometry on CHO-K1/hPD-L1 cells. This is another data set of the same source.
From the text: as §2
Assay [10] has the same target. In words: flow cytometry competition: biotin-hPD-1 binding to CHO-K1/hPD-L1 cells. The source holds these as a separate data set.
Method: as §1
Assay [11] addresses T1, human PD-L1 on Hep3B cells …. The assay is described as follows: cell-based or functional assay. The source holds these as a separate data set.

Where a chain is given by its changes, count along the chain named. Names and notes keep the numbering of the source. Like-named read-outs stand apart in the source and are kept apart here.

T2 sequence (Q9NZQ7 19-238 limits assumed): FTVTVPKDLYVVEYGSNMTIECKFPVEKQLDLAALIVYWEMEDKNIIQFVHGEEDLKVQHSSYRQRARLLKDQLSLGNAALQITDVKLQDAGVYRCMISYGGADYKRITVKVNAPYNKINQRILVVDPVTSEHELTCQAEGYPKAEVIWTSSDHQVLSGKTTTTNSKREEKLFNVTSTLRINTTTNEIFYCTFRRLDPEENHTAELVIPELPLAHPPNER
T1 sequence (Q9NZQ7 19-290): as the sequence (Q9NZQ7 19-290, one chain of several) above

B1: PR000267 (antibody, human IgG1, kappa, N297A, V domains shown)
VH: EVQLVESGGGLVQPGGSLRLSCAASGFTFSSYWMSWVRQAPGKGLEWVANIKQEGSEKYYGDSVKGRFTISRDNAKNSLYLQMNSLRAEETAVYYCARDRAVAGASDIWGQGTMVTVSS
VL: DIQMTQSPSTLSASVGDRVTITCRASQSISSWLAWYQQKPGKAPNLLIYKASSLETGVPSRFSGSGSGTEFTLTISSLQPDDFATYYCQQYYGYSRTFGQGTKVEIKR
notes: heavy chain human IgG1 (N297A)
For B1, in assay [1], the “EC50 (nM), PD-1 / NFAT-luciferase reporter” value was 0.796 nM and the “Maximum fluorescence value (RLU)” value came out at 43000 RLU. Further, the EC50 (usually the concentration that produces a half-maximal response) in assay [2] was found to be 46.2 pM. Also, in assay [3], the IC50 – broadly, the concentration that inhibits the measured activity by half – worked out at 1040 pM and the “Maximum inhibition rate (%)” value came to 91%. Further, in assay [4], it took 775 pM to reach a half-maximal effect (EC50) and the MFI maximum value came to 22400 MFI.

B2: PR000268 (antibody, human IgG1, kappa, N297A, V domains shown)
VH: B1 VH with E54D, G55A
VL: B1 VL
notes: as for B1
With B2, in assay [1], the “EC50 (nM), PD-1 / NFAT-luciferase reporter” value worked out at 0.759 nM and the “Maximum fluorescence value (RLU)” value came out at 45500 RLU. The EC50 in assay [2] stood at 41.2 pM. Also, in [3], the IC50 is 1160 pM and the “Maximum inhibition rate (%)” value was found to be 91.3%. In assay [4], the 50% effective concentration (EC50) was found to be 759 pM and the MFI maximum value was 22200 MFI.

B3: PR000265 (antibody, human IgG1, kappa, N297A)
heavy: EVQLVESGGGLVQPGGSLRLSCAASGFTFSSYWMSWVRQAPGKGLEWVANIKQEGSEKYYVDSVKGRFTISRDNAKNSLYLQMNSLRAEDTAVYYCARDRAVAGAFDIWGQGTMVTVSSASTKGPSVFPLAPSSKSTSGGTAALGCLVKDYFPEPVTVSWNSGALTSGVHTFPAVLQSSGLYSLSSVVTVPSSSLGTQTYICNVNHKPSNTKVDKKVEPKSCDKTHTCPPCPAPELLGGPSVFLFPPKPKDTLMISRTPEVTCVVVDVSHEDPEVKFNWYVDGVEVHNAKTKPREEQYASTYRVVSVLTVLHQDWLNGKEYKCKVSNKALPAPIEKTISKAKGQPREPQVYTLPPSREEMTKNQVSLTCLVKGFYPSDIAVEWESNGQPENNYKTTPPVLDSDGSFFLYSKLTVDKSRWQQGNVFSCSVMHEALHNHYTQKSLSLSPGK
light: DIQMTQSPSTLSASVGDRVTVTCRASQSIYIWLAWYQQKPGKAPNLLIYKASSLETGVPSRFSGSGSGTEFTLTISSLQPDDFATYYCQQYYGSSRTFGQGTKVEIKRTVAAPSVFIFPPSDEQLKSGTASVVCLLNNFYPREAKVQWKVDNALQSGNSQESVTEQDSKDSTYSLSSTLTLSKADYEKHKVYACEVTHQGLSSPVTKSFNRGEC
notes: as for B1
For the molecule B3, in assay [1], the “EC50 (nM), PD-1 / NFAT-luciferase reporter” value was 0.533 nM and the “Maximum fluorescence value (RLU)” value came to 50700 RLU. Moreover, the half-maximal effective concentration (EC50) in assay [2] was 37.3 pM. Also, in assay [3], the IC50 came to 604 pM and the “Maximum inhibition rate (%)” value is 93.6%. Also, in assay [5], binding was put at a Kd of 409 pM, the off-rate constant (koff) (usually the rate constant with which the complex falls apart) amounted to 0.000106 s⁻¹ and the kon (commonly the rate constant with which the complex forms) worked out at 260000 M⁻¹ s⁻¹. In assay [4], this molecule came in with an EC50 of 451 pM and an MFI maximum value of 22600 MFI. For the same molecule, in assay [6], the affinity, expressed as Kd, was 106 pM; the koff is 7.09e-05 s⁻¹; the kon is 669000 M⁻¹ s⁻¹.

B4: PR000416 (antibody, human IgG1, kappa)
heavy: not shown
light: B3 light
notes: PR000265 with the heavy chain constant region replaced by the human IgG1 constant region without mutation; also called Fc-type switching of PR000265
Regarding B4, the values for the EC50 in assay [7] and in [9] were 231 pM and 258 pM, respectively. Also, the MFI maximum value in assay [7] is 37900 MFI; in [9], 40400 MFI. Further, the IC50 in assay [8] was 190 pM; in [10], 127 pM. Moreover, the “EC50 (nM), PD-1 reporter gene cell line” value in [11] was 0.077 nM. Further, the “Maximum fluorescence value (RLU)” value in assay [11] is 3660 RLU.

B5: PR000266 (antibody, human IgG1, kappa, N297A, V domains shown)
VH: B1 VH with E54D, G55A, G61V, E90D, S106F
VL: B1 VL with I21V, S30Y, S31I, Y94S
notes: as for B1
On to B5, for which, in [1], the “EC50 (nM), PD-1 / NFAT-luciferase reporter” value was determined as 0.68 nM and the “Maximum fluorescence value (RLU)” value is 48400 RLU. For the same molecule, a half-maximal response in [2] (EC50) required 41.5 pM. In assay [3], the IC50 came to 838 pM and the “Maximum inhibition rate (%)” value was found to be 91.5%. In addition, in [5], the Kd (commonly a measure of binding affinity in units of concentration) was 349 pM, the koff was 9.62e-05 s⁻¹ and the kon came out at 276000 M⁻¹ s⁻¹. In assay [4], this molecule returned an EC50 of 562 pM and an MFI maximum value of 22400 MFI.

(Values after patent US20260258137A1 (HARBOUR BIOMED SHANGHAI, published 2026).)
